From publication PMC5050335

Tests used:
[1] = target: T1, Cap0037 (Clostridium acetobutylicum ATCC 824) (UniProt Q97TR1); assay: EMSA; conditions: EMSA: 20 ul with 2 ul buffer (stock 200 mM Tris, 500 mM Na glutamate, 100 mM MgCl2, 63.6 mM EDTA, 0.5% NP-40, 50% glycerol), 1 ug poly(dI-dC), 20 min room …
T1 sequence: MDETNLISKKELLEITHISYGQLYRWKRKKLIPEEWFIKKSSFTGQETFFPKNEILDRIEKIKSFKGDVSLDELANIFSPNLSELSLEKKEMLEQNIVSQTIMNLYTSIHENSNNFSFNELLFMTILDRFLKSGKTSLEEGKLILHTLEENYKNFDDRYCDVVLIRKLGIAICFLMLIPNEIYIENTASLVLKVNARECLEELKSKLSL

[2] = target: T1, Cap0037 (Clostridium acetobutylicum ATCC 824); assay: DNase I footprinting; conditions: EMSA: 20 ul with 2 ul buffer (stock 200 mM Tris, 500 mM Na glutamate, 100 mM MgCl2, 63.6 mM EDTA, 0.5% NP-40, 50% glycerol), 1 ug poly(dI-dC), 20 min room …

Sequence | binding [1] | binding [2]
GCATAGGTCAAAAATATAACAGCTGTGTATTTAAATGTAAATAGCAACTTTTACAAAATGGTATCTAATATTTTGGCGTAATAATATATATTTAGGAATTATCAGTATATTTAGAAAAATATGAAGGTTTAAAATAAACTGCTAAATGTAAACGTATAATTTACATTTAGCAGTTTTCCTATATTATAAAATTTTATAGGAGCATAAATAGAATTGAGT (double strand) [sol probe (EMSA)] | binds | 
AGAGAATTCCCATTTTACCTTCTATTCTAACTAAAAGGTATATTGATACAGCTATGGGAAAGCCAACATTGCCTATAAGAGACACTATATCGCCTGAATTCATAAAAACACCTCCACATAAGTTTATATAAATCTATTATGCAGAATTTTTAGGAAGTGTACTTTTATTTTCGAAAGCTAGTAGAAAAAATTAATATATGGTGTAAAAATTTACTTAAAAAAACAATATGTGTTATAATGGAT (double strand) [probe 144 (adc promoter, upstream site)] |  | binds
CTGCATAATATAAAATGCAGATTTTTTTAAACAAATATTGATAAAGATTATCAAATGATATATAATATTGTTAGTTAATAAATTAACAAAGTTTTATATTTTAAATACAATGTTGCATAAGACAAGGTAATTGAACTAATACTATACTAGTAATTGGAGGGGATAATATATGAAAAAGAATACTAAAATTTCAGTAATCGGAGCAGGATTTGT (double strand) [ldhA promoter] | no binding | 
ACAGAATTCGCAGAATTTTTAGGAAGTGTACTTTTATTTTCGAAAGCTAGTAGAAAAAATTAATATATGGTGTAAAAATTTACTTAAAAAAACAATATGTGTTATAATGTAAATATAAATAAATAGGACTAGAGGCGATTTATAATGTGAAGATAAAGTATGTTAGAAAAGCTAAACATTATTAAATTTAGGAAGGTGACTTTTATGTTAAAGGATGAAGTAATTAAACAAATTAGCACGCCATTAACTTCGCCGAT (double strand) [probe adcStart (adc transcription start)] |  | binds
ACAGAATTCCTCAATTCTATTTATGCTCCTATAAAATTTTATAATATAGGAAAACTGCTAAATGTAAATTATACGTTTACATTTAGCAGTTTATTTTAAACCTTCATATTTTTCTAAATATACTGATAATTCCTAAATATATATTATTACGCCAAAATATTAGATACCATTTTGTAAAAGTTGCTATTTACATTTAAATACACAGCTGTTATATTTTTGACCTATGCTTTTTATTGGAT (double strand) [probe sol (sol promoter, footprint)] |  | binds
